Experiments:
human PTH/PTHrP receptor [1] = biological target: T1, human PTH/PTHrP receptor (Homo sapiens, UniProt Q03431); test: Cellular cAMP accumulation in LLC-PK1 cells expressing human PTHR; assay type: cell-based; design: transfected with a full-length human PTH/PTHrP receptor cDNA; expressed in transfected cells; settings: HKRK B28 cells; similar in HKRK B7
T1 sequence (Q03431 27-593): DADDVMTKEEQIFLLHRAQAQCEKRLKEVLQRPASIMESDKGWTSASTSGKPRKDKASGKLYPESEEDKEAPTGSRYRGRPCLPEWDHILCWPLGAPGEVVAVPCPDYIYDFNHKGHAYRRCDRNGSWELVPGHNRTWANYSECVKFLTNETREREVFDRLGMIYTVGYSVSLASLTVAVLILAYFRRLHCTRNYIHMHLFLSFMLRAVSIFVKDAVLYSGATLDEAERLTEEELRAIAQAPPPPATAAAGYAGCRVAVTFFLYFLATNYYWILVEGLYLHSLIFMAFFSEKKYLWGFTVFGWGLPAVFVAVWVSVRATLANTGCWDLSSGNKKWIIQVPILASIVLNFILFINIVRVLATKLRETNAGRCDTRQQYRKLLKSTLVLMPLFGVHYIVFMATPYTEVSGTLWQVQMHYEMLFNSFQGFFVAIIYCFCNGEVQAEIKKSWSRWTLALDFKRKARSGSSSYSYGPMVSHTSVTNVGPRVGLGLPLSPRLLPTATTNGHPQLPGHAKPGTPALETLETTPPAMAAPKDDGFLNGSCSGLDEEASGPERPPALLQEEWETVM
Experimental: Cells were seeded into 24-well plates at a density of 2.5×10^5 cells/well and cultured for a further 2 days before study. The cells were rinsed once with 0.5 ml of ice-cold Buffer B [10 mM HEPES (pH 7.4), 130 mM NaCl, 5 mM KCl, 1.2 mM CaCl2, 1 mM MgCl2, 1.2 mM Na2HPO^4 5 mM glucose, and 0.1% heat-inactivated BSA] supplemented with 1 mM isobtylmethylxanthine (IBMX), and placed on ice. Treatments were added to each well in 0.25 ml of IBMX-supplemented Buffer B, after which the plates were incubated at 37° C. for 15 min. The buffer then was rapidly aspirated, the plates were rapidly transferred onto liquid nitrogen, and the frozen monolayers were subsequently thawed directly into 0.5 ml of 50 mM HCl. The extracted cAMP then was measured using a commercial RIA kit (Dupont-New England Nuclear, Boston, Mass.). Results were expressed as fold-basal, where basal levels ranged between 38 and 128 pmol/mg protein/15 min. The basal level of cAMP accumulation in native LLC-PK1 cells was not consistently altered in subclones that expressed wild type PTH/PTHrp receptors.
Maximal PTH-dependent cAMP accumulation was assessed in the human PTHR-transfected LLC-PK1 subclones following incubation for 15 min with a high concentration (1000 nM) of hPTH(1-34) (Table 1). As reported previously for LLC-PK1 cells that stably expressed rat PTHRs (Guo, J., et al., Endocrinology 136:3884-3891 (1995)), the maximal adenylyl cyclase response was relatively independent of the surface density of human PTHRs above a relatively low threshold (relative to that required for PLC activation—see below). In the case of the human PTHR, however, this threshold for saturation of maximal AC activation appeared to lie between 120,000 and 280,000 (Table 1), which is at least 6 to 10-fold higher than that previously observed for the rat PTHR (Guo, J., et al., Endocrinology 136:3884-3891 (1995)).

human PTH/PTHrP receptor [2] = biological target: T1, human PTH/PTHrP receptor; test: Cellular phosphate uptake in LLC-PK1 cells expressing human PTHR; assay type: cell-based; design: transfected with a full-length human PTH/PTHrP receptor cDNA; expressed in transfected cells; settings: HKRK B28 and HKRK B7 cells; peptides 1000 nM, 6 hr
Experimental: FIG. 8. Regulation of phosphate uptake by PTH in HKRK B7 and HKRK B28 cells. […] Results are expressed as percentage of basal, and each bar represents the mean±SEM of a representative experiment performed in triplicate. Similar results were obtained from at least 5 individual experiments. Cells were seeded into 24-well plates at a density of 2.5×10^5 cells/well and cultured for a further 2 days before study. Twenty four hours before assay, cells were refed with 0.5 ml of DMEM containing 0.1% BSA. The next day, cells were refed with serum-free medium (DMEM+0.1% BSA) containing drugs or peptides, and the incubations were continued at 37° C. under 5% CO2 in air for another 6 hr. Cells then were washed with prewarmed Buffer B without BSA and Na2HPO4 and then were incubated at 37° C. for 5 min in 0.25 ml of the same buffer containing [^32P]orthophosphate (4 uCi/ml) and 0.1 mM Na2HPO4. Phosphate uptake was arrested by adding 1 ml of ice-cold sodium-free “stop buffer” [10 mM HEPES (pH 7.4), 140 mM choline chloride, and 5 mM sodium arsenate], followed by two further washes with same buffer. The drained cell layer then was solubilized in 0.5 ml of Lysis Buffer, and cell-associated radioactivity was determined by Cerenkov counting, as previously described (Guo, J., et al., Endocrinology 136:3884-3891 (1995)).

## hPTH(1-31)
Human PTH/PTHrP receptor [1]
  activation of AC (in words): indistinguishable from that to hPTH(1-34)
Human PTH/PTHrP receptor [2]
  maximal activation of phosphate uptake (in words): comparable maximal activation of phosphate uptake
